Numbering of substitutions follows the chain as printed.

T1: cynoSIRPα (EGM_02252), Extracellular Domain + His-Tag (cynomolgus monkey)
T1 construct: also called CySIRPα EGM_02252; not shown: His-Tag
T1 chain: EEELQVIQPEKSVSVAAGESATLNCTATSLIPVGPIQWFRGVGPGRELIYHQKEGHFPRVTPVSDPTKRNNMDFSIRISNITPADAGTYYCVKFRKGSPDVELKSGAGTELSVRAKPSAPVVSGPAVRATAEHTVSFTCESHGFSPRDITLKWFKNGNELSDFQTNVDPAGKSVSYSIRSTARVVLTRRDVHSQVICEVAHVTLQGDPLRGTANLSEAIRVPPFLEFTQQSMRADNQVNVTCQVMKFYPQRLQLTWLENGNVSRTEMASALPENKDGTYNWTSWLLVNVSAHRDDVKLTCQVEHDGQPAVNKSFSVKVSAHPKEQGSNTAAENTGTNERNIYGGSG

T2: cynoSIRPα (NP_001271679), Extracellular Domain + His-Tag (cynomolgus monkey)
T2 construct: also called CySIRPα NP_001271679; not shown: His-Tag
T2 chain: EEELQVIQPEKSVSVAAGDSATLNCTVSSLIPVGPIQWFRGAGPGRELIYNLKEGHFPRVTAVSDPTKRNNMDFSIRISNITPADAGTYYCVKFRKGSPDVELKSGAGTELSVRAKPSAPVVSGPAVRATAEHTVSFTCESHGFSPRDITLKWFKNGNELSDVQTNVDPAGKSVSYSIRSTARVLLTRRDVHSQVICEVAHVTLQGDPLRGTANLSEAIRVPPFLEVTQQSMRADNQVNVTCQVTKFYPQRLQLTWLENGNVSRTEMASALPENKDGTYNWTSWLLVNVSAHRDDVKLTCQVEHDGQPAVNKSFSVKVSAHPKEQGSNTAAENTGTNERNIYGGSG

T3: cynoSIRPα (XP_015313155), Extracellular Domain + His-Tag (cynomolgus monkey)
T3 construct: also called CySIRPα XP_015313155; not shown: His-Tag
T3 chain: T2 chain with A62P, V163F, L185V

B1: Antibody E1 (antibody, human IgG1, kappa, L234A L235A, V domains shown)
VH: QVQLQESGPGLVRPSETLSLTCTVSGGSIRNYYWSWIRQPPGKGLEWIGFIYYNGRTFYNPSLKSRVTISLDMSINQFSLKMTSVTAADTAVYYCARVRAYSGIGLDGTDVWGQGTTVTVSS
VL: DIVMTQSPLSLPVTPGEPASISCKSSQSLLYSNGYAYLDWYLQRPGQSPQLLIYQGSNRASGVPDRFSGSGSGTDFTLKISRVEAEDVGVFYCMQALQTPLTFGGGTKVEIKR
B2: Antibody E3 (antibody, human IgG1, kappa, L234A L235A, V domains shown)
VH: B1 VH with I75K
VL: B1 VL
B3: Antibody E5 (antibody, human IgG1, kappa, L234A L235A, V domains shown)
VH: B1 VH with M73K, I75K
VL: B1 VL
B4: Antibody E2 (antibody, human IgG1, kappa, L234A L235A, V domains shown)
VH: B1 VH
VL: B1 VL with Q55L, F91Y
B5: Antibody E4 (antibody, human IgG1, kappa, L234A L235A, V domains shown)
VH: B1 VH with I75K
VL: B1 VL with Q55L, F91Y

T4 sequence (P78324 other isoform, or with tags, fused parts or gaps): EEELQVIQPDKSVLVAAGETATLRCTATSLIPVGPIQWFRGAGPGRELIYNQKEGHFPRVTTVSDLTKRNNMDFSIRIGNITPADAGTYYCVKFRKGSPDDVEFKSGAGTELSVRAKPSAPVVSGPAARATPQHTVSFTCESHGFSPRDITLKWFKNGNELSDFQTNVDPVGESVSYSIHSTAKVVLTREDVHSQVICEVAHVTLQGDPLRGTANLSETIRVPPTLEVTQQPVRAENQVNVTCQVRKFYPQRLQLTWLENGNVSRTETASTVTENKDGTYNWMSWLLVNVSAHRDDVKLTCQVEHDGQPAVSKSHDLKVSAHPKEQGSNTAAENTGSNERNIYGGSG

The first test addresses T1, cynoSIRPα (EGM_02252), Extracellular …. In words: SPR, antibody captured on Protein A/G, ECD-His analyte. The method, then:
(§1) The binding kinetics of anti-SIRPα antibodies to various SIRPα analytes are determined by surface plasmon resonance (SPR) using a Biacore 8K+(Cytiva). 1×HBS-EP+(Cytiva) is used as running buffer and for all the dilutions unless stated otherwise. The Series S CM5 sensorchip is activated with a 1:1 mixture of 0.1 M NHS (N-hydroxysuccinimide) and 0.4 M EDC (1-Ethyl-3-(3-dimethylaminopropyl) carbodiimide hydrochloride) for 420 seconds at a flow rate of 10 μl/min and immobilized with Protein A/G (Thermo Scientific, 10 μg/ml in 10 mM acetate pH 4.5) for 420 seconds at a flowrate of 10 μl/min resulting in approximately 3000 RU of Protein A/G on the surface. The sensorchip is then deactivated with 1 M ethanolamine HCl pH 8.5 for 420 seconds at a flowrate of 10 μl/min.
(§2) Antibodies (approximately 1 ug/ml) are captured on the Protein A/G surface for 60 seconds at a flowrate of 10 μl/min resulting in capture levels of approximately 240 RU. Dilutions of each SIRP protein (Extracellular Domain+His-Tag, with the concentrations as indicated) are injected as analytes over the captured antibody for 300 seconds of association at a flowrate of 30 μl/min, followed by a dissociation for 600 seconds.
In general terms: Surface plasmon resonance follows binding to a sensor surface in real time, without labels.
Take B1: the binding result is listed as “no binding (tested: 1000 nM)”.

Consider B2, for which the binding result is reported as “no binding (tested: 1000 nM)”.

With B3, the binding result was “no binding (tested: 1000 nM)”.

As for B4, the binding result is “no binding (tested: 1000 nM)”.

For the molecule B5, the binding result was “no binding (tested: 1000 nM)”.

The next test concerns the target T4, Human SIRPαV1 (NP_542970.1), Extracellular Domain + His-Tag (human, UniProt P78324 31-373).
T4 construct: also called huSIRPαV1; hSIRPαV1; not shown: His-Tag
In words: SPR, antibody captured on Protein A/G, ECD-His analyte, 1:1 fit. The method, then: as §1, §2
(§3) The above procedures are used to measure binding properties of antibodies of the present disclosure. For each analyte used, the highest concentration was as indicated in Example 3 (see Table 36).
With B1, the Kd turned out to be 0.72 nM, the dissociation rate constant (koff) is 0.000299 s⁻¹ and the kon turned out to be 414000 M⁻¹ s⁻¹.

For the molecule B2, the Kd worked out at 0.96 nM, the dissociation rate constant (koff) was found to be 0.000371 s⁻¹ and the kon worked out at 385000 M⁻¹ s⁻¹.

Take B3: the Kd turned out to be 1.02 nM, the koff amounted to 0.000336 s⁻¹ and the association rate constant (kon) stood at 331000 M⁻¹ s⁻¹.

As for B4, the Kd is 0.91 nM, the koff came out at 0.000419 s⁻¹ and the kon was determined as 459000 M⁻¹ s⁻¹.

For the molecule B5, the dissociation constant (Kd) was found to be 0.99 nM, the off-rate constant (koff) was 0.000433 s⁻¹ and the kon was 438000 M⁻¹ s⁻¹.

For the next test, the target named is T5, Human SIRPαV2 (CAA71403.1), Extracellular Domain + His-Tag (human, UniProt P78324 31-373).
T5 construct: also called huSIRPαV2; hSIRPαV2; not shown: His-Tag
T5 sequence (P78324 other isoform, or with tags, fused parts or gaps): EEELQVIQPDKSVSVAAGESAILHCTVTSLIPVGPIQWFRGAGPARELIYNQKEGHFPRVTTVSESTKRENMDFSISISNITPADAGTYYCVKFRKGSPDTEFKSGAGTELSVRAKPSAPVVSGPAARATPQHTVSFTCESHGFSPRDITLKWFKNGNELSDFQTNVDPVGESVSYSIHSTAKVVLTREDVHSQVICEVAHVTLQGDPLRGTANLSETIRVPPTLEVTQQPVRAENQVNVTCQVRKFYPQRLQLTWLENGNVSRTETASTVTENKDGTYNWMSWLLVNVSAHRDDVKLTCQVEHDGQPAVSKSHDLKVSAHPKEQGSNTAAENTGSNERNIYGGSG
The description is as above. On the procedure: as §1, §2, §3
On to B1, for which the Kd was determined as 0.63 nM, the koff was determined as 0.00033 s⁻¹ and the kon was determined as 523000 M⁻¹ s⁻¹.

For B2, the Kd worked out at 0.78 nM, the koff is 0.000366 s⁻¹ and the kon was found to be 472000 M⁻¹ s⁻¹.

Consider B3, for which the Kd is 0.87 nM, the koff was determined as 0.000355 s⁻¹ and the kon came to 406000 M⁻¹ s⁻¹.

As for B4, the Kd stood at 0.69 nM, the koff worked out at 0.000367 s⁻¹ and the association rate constant (kon) was found to be 535000 M⁻¹ s⁻¹.

On to B5, for which the Kd turned out to be 0.82 nM, the koff worked out at 0.000421 s⁻¹ and the kon came out at 511000 M⁻¹ s⁻¹.

A further test concerns the target T2, cynoSIRPα (NP_001271679), Extracellular …. The description is as above. The method, then: as §1, §2, §3
On to B1, for which the Kd is 17.9 nM, the dissociation rate constant (koff) is 0.00327 s⁻¹ and the kon came to 183000 M⁻¹ s⁻¹.

For B2, the Kd was 17.3 nM, the koff came to 0.00291 s⁻¹ and the kon was found to be 168000 M⁻¹ s⁻¹.

Turning to B3, the Kd came to 38.2 nM, the koff is 0.00471 s⁻¹ and the on-rate (kon) was determined as 123000 M⁻¹ s⁻¹.

For B4, the Kd came to 20.7 nM, the koff is 0.00526 s⁻¹ and the on-rate constant (kon) stood at 254000 M⁻¹ s⁻¹.

For the molecule B5, the Kd amounted to 21.1 nM, the koff was found to be 0.00468 s⁻¹ and the kon amounted to 222000 M⁻¹ s⁻¹.

In a further test the target is T3, cynoSIRPα (XP_015313155), Extracellular …. The test is described as above. On the procedure: as §1, §2, §3
As for B1, the Kd was 16.7 nM, the koff stood at 0.00317 s⁻¹ and the kon turned out to be 190000 M⁻¹ s⁻¹.

Take B2: the Kd amounted to 16.9 nM, the koff stood at 0.00288 s⁻¹ and the kon stood at 170000 M⁻¹ s⁻¹.

In the case of B3, the Kd stood at 37.8 nM, the koff is 0.00459 s⁻¹ and the kon turned out to be 121000 M⁻¹ s⁻¹.

Regarding B4, the equilibrium dissociation constant (Kd) came to 19.7 nM, the koff amounted to 0.00512 s⁻¹ and the kon amounted to 260000 M⁻¹ s⁻¹.

Consider B5, for which the dissociation constant (Kd) amounted to 19.8 nM, the koff was 0.00451 s⁻¹ and the kon is 228000 M⁻¹ s⁻¹.

Usually Kd stands for the free concentration of one partner at which half of the binding sites on the other are occupied at equilibrium, for simple one-to-one binding. The koff is the first-order rate constant of dissociation. Broadly, the kon is the second-order rate constant of association.

These data come from patent US20230012273A1 (Boehringer Ingelheim, published 2023).
